Assay results taken from article PMC2175296.
Where “and” joins values, the source holds several entries; their conditions need not be identical. Identical values can stand only once.

Biological target: GST–hEST1A (recombinant full-length human EST1A/SMG6 as N-terminal GST fusion) (human) (UniProt Q86US8)
Assay: pull-down

Sequence of UniProt Q86US8 (Q86US8 whole entry, the tested form may be a part): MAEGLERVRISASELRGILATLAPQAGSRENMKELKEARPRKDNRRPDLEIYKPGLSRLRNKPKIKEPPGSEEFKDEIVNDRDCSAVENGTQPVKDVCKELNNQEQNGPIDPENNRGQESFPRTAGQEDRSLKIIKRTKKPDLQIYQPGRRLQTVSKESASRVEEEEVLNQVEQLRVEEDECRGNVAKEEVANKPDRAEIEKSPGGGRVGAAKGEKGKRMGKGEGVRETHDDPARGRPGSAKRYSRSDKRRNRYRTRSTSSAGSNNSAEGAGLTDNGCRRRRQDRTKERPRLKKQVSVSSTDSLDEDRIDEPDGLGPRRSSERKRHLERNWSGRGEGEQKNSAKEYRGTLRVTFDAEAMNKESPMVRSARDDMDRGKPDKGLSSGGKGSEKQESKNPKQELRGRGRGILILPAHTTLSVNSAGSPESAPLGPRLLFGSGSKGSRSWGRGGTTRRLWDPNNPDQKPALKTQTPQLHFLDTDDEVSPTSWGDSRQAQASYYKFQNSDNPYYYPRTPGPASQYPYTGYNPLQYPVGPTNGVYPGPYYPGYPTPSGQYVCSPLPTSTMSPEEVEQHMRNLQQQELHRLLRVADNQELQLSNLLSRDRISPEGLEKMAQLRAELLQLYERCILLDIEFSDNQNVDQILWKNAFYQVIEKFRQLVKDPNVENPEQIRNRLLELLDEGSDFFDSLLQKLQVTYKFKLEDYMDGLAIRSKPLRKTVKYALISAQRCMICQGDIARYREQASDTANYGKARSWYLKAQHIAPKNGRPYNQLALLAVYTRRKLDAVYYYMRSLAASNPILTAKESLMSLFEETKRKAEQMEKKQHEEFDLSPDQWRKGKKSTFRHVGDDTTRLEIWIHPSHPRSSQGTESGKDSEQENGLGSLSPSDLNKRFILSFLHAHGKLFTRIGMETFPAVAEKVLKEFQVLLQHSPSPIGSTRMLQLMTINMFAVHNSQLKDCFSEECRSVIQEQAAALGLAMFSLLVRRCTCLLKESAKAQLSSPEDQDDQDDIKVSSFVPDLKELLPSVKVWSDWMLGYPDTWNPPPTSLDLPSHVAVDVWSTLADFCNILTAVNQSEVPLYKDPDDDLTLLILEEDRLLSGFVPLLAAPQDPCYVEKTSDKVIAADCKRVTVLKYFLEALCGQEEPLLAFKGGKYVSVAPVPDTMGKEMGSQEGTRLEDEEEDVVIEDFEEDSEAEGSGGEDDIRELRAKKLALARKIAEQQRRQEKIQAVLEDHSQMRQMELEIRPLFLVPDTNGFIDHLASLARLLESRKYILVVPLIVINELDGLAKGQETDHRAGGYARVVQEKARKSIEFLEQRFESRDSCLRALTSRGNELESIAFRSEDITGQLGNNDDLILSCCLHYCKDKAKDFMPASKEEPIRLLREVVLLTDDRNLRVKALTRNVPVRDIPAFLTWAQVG

percent of telomerase activity associated with the beads: 10 percent and 30 percent
Substance: telomerase, expressed and reconstituted in insect cells or in RRL
